Consider five molecules from patent publication US20250136687A1 (SHANDONG SIMCERE BIOPHARMACEUTICAL, published 2025).

As usually defined, the EC50 is the concentration needed to bring the measured effect to its halfway point. Broadly, the Kd is the equilibrium constant for the complex coming apart. What is called koff is the first-order rate constant of dissociation. Broadly, the kon is a measure of how fast the partners come together.

In assay [1] the target is T1, human CD3ε/δ-His (human, UniProt P07766 23-126; P04234 22-105).
T1 construct: Bought recombinant heterodimer with His tag; also called human CD3ε/δ protein
T1 sequence (P07766 23-126, stated change not applied, form in doubt, chain 1 of 2): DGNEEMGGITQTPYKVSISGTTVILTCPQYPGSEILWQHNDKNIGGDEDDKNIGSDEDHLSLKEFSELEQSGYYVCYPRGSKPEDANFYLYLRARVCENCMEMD
T1 sequence (P04234 22-105, stated change not applied, form in doubt, chain 2 of 2): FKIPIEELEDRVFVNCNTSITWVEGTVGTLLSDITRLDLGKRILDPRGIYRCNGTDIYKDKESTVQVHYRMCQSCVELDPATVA
The assay is described as follows: ELISA, coated antigen. Here is the method:
(§1) To detect the binding activity of the humanized antibodies to CD3 protein, CD3 protein was diluted with PBS to the final concentration of […], then added to a 96-well ELISA plate at 50 μL/well, and the plate was sealed with a plastic film, and incubated overnight at 4° C. On the next day, the plate was washed 2 times with PBS, and a blocking solution [PBS+2% (v/v) BSA] was added for blocking at room temperature for 2 h. The blocking solution was poured off, and the antibody (initial concentration of 100 nM, and gradient dilution at 1:10) or a negative control antibody was added at 50 µl/well. After incubation at 37° C. for 2 h, the plate was washed 3 times with PBS. […] TMB substrate was added at 50 μl/well, and incubated at room temperature for 10 min, and then a stop solution (1.0 N HCl) was added at 50 μl/well. The OD450 nm values were read by an ELISA microplate reader (Multimode Plate Reader, EnSight, purchased from Perkin Elmer).

Assay [2] concerns the target T2, recombinant human CD3ε-ECD His protein (human, UniProt P07766 23-126).
T2 construct: extracellular domain; also called human CD3ε-His; CD3ε antigen protein; not shown: His tag
In words: ELISA, coated antigen. How it is done: as §1
Background: ELISA stands for enzyme-linked immunosorbent assay.

A further assay deals with T3, monkey CD3ε/δ-His (monkey, UniProt Q95LI5 22-117; Q95LI8 22-105).
T3 construct: Bought recombinant heterodimer with His tag
T3 sequence (Q95LI8 22-105, stated change not applied, form in doubt, chain 2 of 2, one chain of several): as the sequence (P04234 22-105, stated change not applied, form in doubt, chain 2 of 2) above, with I5V, N15K, I20V, S32T, D33N, I34N, T64A, S74N, V83L counted along it
The assay is described as follows: ELISA, coated antigen. How it is done:
as §1
(§2) To detect the binding activity of the humanized antibodies to monkey CD3 protein, CD3 protein was diluted with PBS to the final concentration of […], and then added to a 96-well ELISA plate at 50 μl/well.

For another assay, the target named is T4, monkey CD3ε protein (monkey, UniProt Q95LI5 22-117, limits assumed).
T4 sequence (looked up): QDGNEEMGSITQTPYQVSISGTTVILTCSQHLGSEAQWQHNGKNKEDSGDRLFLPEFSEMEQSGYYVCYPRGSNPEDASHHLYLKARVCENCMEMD
In words: ELISA, coated antigen. How it is done:
as §1, §2

The target of assay [3] is T5, human CD3 on the cell surface (Jurkat cells, expanded human T cells, Jurkat-Lucia NFAT cells, human PBMC) (human, UniProt P07766 23-207; P04234 22-171; P09693 23-182).
T5 construct: whole, on cells; Endogenous CD3 within the TCR-CD3 complex on cells (also zeta chains and TCR); the cell type is named under assay
T5 sequence (P07766 23-207, chain 1 of 3): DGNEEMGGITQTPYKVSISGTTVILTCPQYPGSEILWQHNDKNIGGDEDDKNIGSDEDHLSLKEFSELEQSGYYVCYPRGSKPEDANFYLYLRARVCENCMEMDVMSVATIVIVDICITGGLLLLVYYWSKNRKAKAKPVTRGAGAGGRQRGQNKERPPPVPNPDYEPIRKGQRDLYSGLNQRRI
T5 sequence (P04234 22-171, chain 2 of 3): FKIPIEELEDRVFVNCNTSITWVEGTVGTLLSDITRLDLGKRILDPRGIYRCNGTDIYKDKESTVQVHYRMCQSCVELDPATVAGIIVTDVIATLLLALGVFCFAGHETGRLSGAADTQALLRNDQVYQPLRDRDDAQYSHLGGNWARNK
T5 sequence (P09693 23-182, chain 3 of 3): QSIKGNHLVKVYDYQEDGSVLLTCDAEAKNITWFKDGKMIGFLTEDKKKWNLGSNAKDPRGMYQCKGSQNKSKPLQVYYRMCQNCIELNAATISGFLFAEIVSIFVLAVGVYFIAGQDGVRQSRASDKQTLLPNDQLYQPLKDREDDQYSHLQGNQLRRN
The assay is described as follows: FACS, expanded human T cells. How it is done:
(§3) The binding of the chimeric antibodies to CD3 on the cell surface was analyzed by detecting the binding of the antibodies to Jurkat cells and human T cells. Suspension cells Jurkat cells were scale-up cultured in T-75 cell culture flasks to the logarithmic growth phase, the supernatant of the medium was discarded by centrifugation, and the cell pellet was washed 2 times with PBS for later use. The expanded human T cells were washed 2 times with PBS for later use. After counting the cells in the previous step, the cell pellet was resuspended with [PBS+2% (w/w) BSA] blocking solution to 4×10⁶ cells/ml, and added to a 96-well FACS reaction plate at 50 μl/well, and then the chimeric antibody to be tested was added at 50 μl/well, and incubated at 4° C. for 1 h. The cells were centrifuged and washed 3 times with a PBS buffer. […] The cells were centrifuged and washed 5 times with PBS, and FACS (FACS Canto™, purchased from BD Company) was used for detection and result analysis. Data analysis was performed by software (CellQuest) to obtain the mean fluorescence […] (MFI) of the cells. And then software (GraphPad Prism8) was used for analysis, data fitting, and EC50 value calculation. The same method was used to simultaneously detect the binding of the chimeric antibodies to endogenous CD3 negative cells MOLT4 cells.
The expanded human PBMC cells were collected, and FACS detection and data analysis were performed according to the method in Example 5.1.

Assay [4] addresses T6, cynomolgus monkey CD3 on the surface of expanded monkey T cells (cynomolgus monkey, UniProt Q95LI5 22-198; Q95LI8 22-171; Q95LI7 23-181).
T6 construct: whole, on cells; Endogenous CD3 within the TCR-CD3 complex on T cells expanded from cynomolgus monkey PBMC
The assay is described as follows: FACS, expanded monkey T cells. How it is done: as §3
The expanded monkey T cells were collected, and FACS detection and data analysis were performed according to the method in Example 5.1.
Background: In flow cytometry, cells or beads pass a laser one at a time.

The target of assay [5] is T1, human CD3ε/δ-His. In words: SPR, antibody captured on Protein A chip. Here is the method: (§4) Running buffer was HBS-EP+(10 mM HEPES, 150 mM NaCl, 3 mM EDTA, 0.05% surfactant P20) (GE Healthcare; BR-1006-69). The flow-through cell was set to 25° C. The sample block was set to 16° C. Both were pretreated with the running buffer. In each cycle, an antibody to be detected was first captured with a Protein A chip, and then a single concentration of CD3ε antigen protein was injected. The binding and dissociation processes of the antibody and the antigen protein were recorded, and finally Glycine pH 1.5 (GE Healthcare; BR-1003-54) was used to complete chip regeneration. The binding was measured by injecting different concentrations of recombinant human CD3ε proteins in a solution for 240 s with a flow rate of 30 μL/min. The concentration started from 200 nM (see the detailed results for the actual concentration in the test) and was diluted at 1:1, making a total of 5 concentrations. The dissociation phase was monitored for up to 600 s and was triggered by switching from sample solution to running buffer. The surface was regenerated by washing with a 10 mM glycine solution (pH 1.5) for 30 s at a flow rate of 30 μL/min. Bulk refractive index difference was corrected by subtracting the response obtained from the goat anti-human Fc surface, and the blank injection was subtracted at the same time (=double reference). For calculation of apparent KD value and other kinetic parameters, Langmuir 1:1 model was used.

Assay [6] concerns the target T2, recombinant human CD3ε-ECD His protein. In words: SPR, antibody captured on Protein A chip. Here is the method:
as §4
(In general: Surface plasmon resonance follows binding to a sensor surface in real time, without labels.)

Assay [7] addresses T5, human CD3 on the cell surface (Jurkat …). The assay is described as follows: FACS, Jurkat cells. How it is done:
as §3

For assay [8] the target is unchanged. The assay is described as follows: cell-based or functional assay.
Assay [9] shares this target. The assay is described as follows: FACS, expanded human T cells. Here is the method:
as §3
The source holds these as a separate data set.

In assay [10] the target is T6, cynomolgus monkey CD3 on the surface of …. In words: FACS, expanded monkey T cells. How it is done:
as §3
FACS detection and data analysis were performed on the cryopreserved monkey T cells of Example 2.4 according to the method in Example 5.1.
The source holds these as a separate data set.

Like-named read-outs stand apart in the source and are kept apart here.

T6 sequence (Q95LI5 22-198, chain 1 of 3): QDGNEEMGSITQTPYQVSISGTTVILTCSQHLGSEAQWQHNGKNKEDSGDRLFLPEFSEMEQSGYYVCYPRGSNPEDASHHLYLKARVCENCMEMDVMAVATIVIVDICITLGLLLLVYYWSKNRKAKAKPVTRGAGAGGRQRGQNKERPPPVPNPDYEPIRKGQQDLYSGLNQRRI
T6 sequence (Q95LI8 22-171, chain 2 of 3): as the sequence (P04234 22-171, chain 2 of 3) above, with I5V, N15K, I20V, S32T, D33N, I34N, T64A, S74N, V83L, H141R counted along it
T6 sequence (Q95LI7 23-181, chain 3 of 3): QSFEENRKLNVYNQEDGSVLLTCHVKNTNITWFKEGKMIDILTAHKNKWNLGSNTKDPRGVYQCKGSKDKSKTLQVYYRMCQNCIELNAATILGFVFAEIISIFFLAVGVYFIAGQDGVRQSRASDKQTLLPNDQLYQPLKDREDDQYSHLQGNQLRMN
T2 sequence (P07766 23-126): as the sequence (P07766 23-126, stated change not applied, form in doubt, chain 1 of 2) above

B1: 8-18.1-H1-L2 humanized antibody (antibody, human IgG1, kappa, V domains shown)
VH: EVQLVQSGAEVKKPGASVKVSCKASGYTFTMNTMHWVRQAPGQRLEWMGYINPYSGYTKYNQIFKDRVTITADKSASTAYMELSSLRSEDTAVYYCLRGGEGVWGQGTTVTVSS
VL: DVVMTQSPLSLPVTLGQPASISCKSSQSLLDSDGKTYLNWLQQRPGQSPRRLIYLVSELGSGVPDRFSGSGSGTDFTLKISRVEAEDVGVYYCWQGTHFPRTFGGGTKVEIKR
Turning to B1, the EC50 was determined as 220 pM with human CD3ε/δ-His [1]; 36.3 pM in [2]; 19.3 pM with monkey CD3ε/δ-His; 4.75 pM with monkey CD3ε protein; 7050 pM in assay [3]; 2840 pM in [4]. The max-OD450 with human CD3ε/δ-His [1] amounted to 3.16 OD450; in assay [2], 3.11 OD450; with monkey CD3ε/δ-His, 3.16 OD450; in the assay with monkey CD3ε protein it was 3.1 OD450. The max_MFI in assay [3] turned out to be 11500 MFI; in [4], 11800 MFI. Further, the Kd worked out at 67400 pM in the assay with human CD3ε/δ-His [5] and 908 pM in assay [6]. Besides, the off-rate (koff) with human CD3ε/δ-His [5] is 0.0317 s⁻¹; in assay [6], 0.000249 s⁻¹. Moreover, the kon in the assay with human CD3ε/δ-His [5] came to 469000 M⁻¹ s⁻¹; in assay [6], 274000 M⁻¹ s⁻¹.

B2: 6-35.22 human-murine chimeric antibody (antibody, human IgG1, kappa, V domains shown)
VH: EVKLVESGGGLVQPGASLSLSCAASGFTFTDYYMSWVRQPPGKALEWLAMSRNKAKGHTIEYSSSVKGRFTISRDNSQSILYLQMNALRAEDSATYYCARDTYESYDGYFDVWGAGTTVIVSS
VL: DIVMSQSPSSLAVSAGETVTMSCKSSQSLFNSRSRKNYLAWYQQKPGQTPKLLIYWASIRESGVPDRFTGSGSGTDFTLTISSVQAEDLAVYYCKQSYYLYTFGSGTKLEIKR
notes: Human IgG1 chimera
Take B2: in assay [7], the midpoint of the response, the EC50, lay at 8300 pM and the MFI_Max came to 26700 MFI. Moreover, in assay [8], the “EC50 (nM), luciferase reporter, Jurkat-Lucia NFAT cells” value stood at 0.82 nM and the “Maximum response value (RLU)” value was determined as 27000 RLU. For the same molecule, in [9], a half-maximal effect (EC50) was put at 3620 pM and the MFI_Max is 8900 MFI. In assay [10], this molecule gave an EC50 of 4180 pM and an MFI_Max of 18200 MFI.

B3: 5-7.13-H1a-L2 humanized antibody (antibody, human IgG1, kappa, V domains shown)
VH: EVQLVQSGAEVKKPGASVKVSCKASGYTFTSYWVHWVRQAPGQRLEWMGNINPSDGVTNYNEKFKSRVTITVDKSASTAYMELSSLRSEDTAVYYCTRDAYGQYYFDNWGQGTTVTVSS
VL: DIVMTQTPLSLPVTPGEPASISCKSSQSLLNSRTRKNYLAWYLQKPGQSPQLLIYWASVRDSGVPDRFSGSGSGTDFTLKISRVEAEDVGVYYCIQSYYLRTFGGGTKVEIKR
Take B3: the EC50 with human CD3ε/δ-His [1] came to 190 pM; in assay [2] it was 20.6 pM; with monkey CD3ε/δ-His, 3.32 pM; with monkey CD3ε protein it was 2.63 pM; in [3] it was 1520 pM; in [4], 920 pM. Further, the max-OD450 in the assay with human CD3ε/δ-His [1] was 3.01 OD450; in assay [2] it was 3.16 OD450; with monkey CD3ε/δ-His it was 3.08 OD450; with monkey CD3ε protein it was 2.99 OD450. Further, the max_MFI in assay [3] came out at 35900 MFI; in assay [4], 25400 MFI. The Kd is 27400 pM in the assay with human CD3ε/δ-His [5] and 806 pM in assay [6]. For the same molecule, the koff in the assay with human CD3ε/δ-His [5] stood at 0.00983 s⁻¹; in assay [6], 0.000214 s⁻¹. Moreover, the kon is 358000 M⁻¹ s⁻¹ with human CD3ε/δ-His [5] and 266000 M⁻¹ s⁻¹ in assay [6].

B4: 6-35.22-H1-L1 humanized antibody (antibody, human IgG1, kappa, V domains shown)
VH: EVQLVESGGGVVQPGRSLRLSCAASGFTFTDYYMSWVRQAPGKGLEWVAMSRNKAKGHTIEYSSSVKGRFTISRDNSKNTLYLQMNSLRAEDTAVYYCARDTYESYDGYFDVWGQGTTVTVSS
VL: DIVMTQSPDSLAVSLGERATINCKSSQSLFNSRSRKNYLAWYQQKPGQTPKLLIYWASIRESGVPDRFSGSGSGTDFTLTISSLQAEDVAVYYCKQSYYLYTFGQGTKLEIKR
In the case of B4, in the assay with human CD3ε/δ-His [1], the EC50 was determined as 530 pM and the max-OD450 turned out to be 2.93 OD450. Moreover, in assay [2], the 50% effective concentration (EC50) is 33.7 pM and the max-OD450 is 3.1 OD450. Moreover, in assay [3], a half-maximal effect (EC50) was put at 49700 pM and the max_MFI came to 11300 MFI.

B5: 7-35.6-H2-L3 humanized antibody (antibody, human IgG1, lambda, V domains shown)
VH: EVQLVESGGGLVQPGGSLKLSCAASGFTFNTYAMNWVRQASGKGLEWVGRIRSKINNYATYYGDSVKDRFTISRDDSKNTFYLQMNSLKTEDTAVYYCVIHENYGSISWFAYWGQGTLVTVSS
VL: ETVVTQEPSLTVSPGGTVTLTCRSSTGAVTTSNYANWVQQKPGQAFTGLIGGTNNRAPWTPARFSGSLLGGKAALTLSGVQPEDEAEYYCALWYSNHWVFGGGTKLTVLG
For B5, the EC50 with human CD3ε/δ-His [1] came to 320 pM; in assay [2], 39.5 pM; in the assay with monkey CD3ε/δ-His it was 55.2 pM; with monkey CD3ε protein, 8.59 pM; in [3], 9450 pM; in [4], 7840 pM. Also, the max-OD450 with human CD3ε/δ-His [1] came out at 3.15 OD450; in assay [2], 3.12 OD450; with monkey CD3ε/δ-His, 3.13 OD450; with monkey CD3ε protein, 3.01 OD450. Also, the values for the max_MFI in assay [3] and in assay [4] were 10000 MFI and 10200 MFI, respectively. For the same molecule, the equilibrium dissociation constant (Kd) with human CD3ε/δ-His [5] was found to be 145000 pM; in [6], 1290 pM. Further, the koff in the assay with human CD3ε/δ-His [5] is 0.0335 s⁻¹; in assay [6], 0.000369 s⁻¹. In addition, the kon came to 231000 M⁻¹ s⁻¹ with human CD3ε/δ-His [5] and 286000 M⁻¹ s⁻¹ in assay [6].
